Assay: soluble on expression in E. coli; label from the status in PepcDB or PDB records

Sequence	soluble on expression in E. coli
MSLRLERLNYNKIKIFLTLDDLTDRGLTKEDLWKDSFKVHQLFKDMMNEANTELGFEANGPIAVEVYSLQAQGMVVIVTKNQDADSEDDEYDDDYIEMQVKLDESADIIYQFHSFEDIIQLSESLQRIGITGGTVYHYDGQYFLSLEDLGSHTAEGVVAVLAEYGNPTTLTIYRLQEYGKLIMDGNAVETIQTHFSEGHHHHHH	soluble
MTDAALPPLIQQMLQPEFYPHVVEAPVQLYQTHCSYVLLTGPYAYKLKKPVYFGFLDYSTLEKRQHFLQEELRLNQRTAAPLYQQVLAISQAGDRYQFAETEPAAEYVLQMKQFPKGCLFSEQFESGQLDASVMRQLAAVVAEFHTKTWVDDHVRSYGQVAQIRKAFDENYQQTLHYIGGPQTQAQFDTTKAFSDRFFDTKADLFAARLAADKIRECHGDLHLGNLCRWDNQLFLFDCIEFNEPFRFVDTMYDIAFLVMDLDARGRQDLGTAFLNAYAEMSGDWEGLQVLPLYLSRQAYVRAKVTSFLLDDPAIDSDRRQQAFDQAAAYYQLAHAYAQPAQQGELLLLSGLSGSGKSTLGRTIAERQRAIILRSDAVRKHLAGISLLERGGPEIYSPEMSDRTYGRLLYLGLGLAQAGYRVILDAKYDRQAYRGAALTAAQAQQIPIQILHCQASEETLRQRLQARQGDIADATADLLAQQLTAWQDFSEDEQGFVRAIATEKPLTQQLDALGFLEHHHHHH	not soluble
MAKKLLLVGGGHSNALVLKHWCRHPLADVELTLVSDVRQTPYSGMLPGYLAGFYSYGESHIDLAPLCASAGAIFVQDKAIAVNPEQNLLTTAEGRQLSFDCLSLDIGSTPFIDDIVGAEYGIPAKPVPQFLTAWLALLENIDQNRPKKVTLAIAGGGAGGVELAFNLQARLAKLFPAMGLDMQIWQRGAILLPHHSVQGRKLIERLLVKQNIAVLLNHPVTSIEPEFSPDDNPLTCYKLWSNDHWQSVNAVFLVTQASPAPWLAQSGLSLDSRGFVSVKPTLQSYSHGHIFAAGDVANMIDHPRPKAGVFAVRQGKPLFENLQHYLSHQTLKTFVPQSKYLSLLGTRDGRAIALWGPWASYGHCWWRLKDYIDRQFMAGFSA	soluble
KKNYALSFNANVGFNKNKVKSLGSLMDYSADSGWASTDIQSDFKVQPGHSVGEIYGFVSDGRYEVSDFEGFIDGKWVLKAGVADASDIIGEKYLRPGAMKLKNVDGSEDNKVTKDDQKVIGDTNPFCSGGFSVNARVYGFDLTANFTYSIGNDIYNANKIEYTSSSKYKYRNMIDVMAEEKRWTNLNADGTICNDPTQLAAMNANTSMWSPWTQKYVLTDWAVEDGSFLRLATLSIGYTLPQTLTRKVGIQNLRFYATGYNLFCITNYSGFDPEVSTRTKSALTPGVDYSAYPRSRQYVIGLNLTF	not soluble
MGSDKIHHHHHHMKSFVIEDEFWSLFPNAKIGVVICHSIDNSIKDENQYKDMISNSEEEALSYLKNEEFSSNEVIKVWREAFQKFKTKKGARSSIEALLKRVHKGNHIGTINPLVDIYNSISLRYAMPCGGEDIDAFAGDIRLTKAVGNESFVTLGTDKNEPPYEGEIVYKDNEGAICRCFNWRESVRTMLTENTKNAFLCIELIDETRVKEFEDALDTLAKTVQDNLGGNCKISTLDINNKSVVID	not soluble
MLSFINKPRMESKMTIPELRELYQTQQLVEAIIEPSFQEGEWIVEFRHQMGGFVLLTDENGEECRYIDLDSASQSAMAVGFRQVRIENQ	not soluble
MGNKICQFKLVLLGESAVGKSSLVLRFVKGQFHEFQESTIGAAFLTQTVCLDDTTVKFEIWDTAGQERYHSLAPMYYRGAQAAIVVYDITNEESFARAKNWVKELQRQASPNIVIALSGNKADLANKRAVDFQEAQSYADDNSLLFMETSAKTSMNVNEIFMAIAKKLPKN	soluble
GSPGISGGGGGILDMADDDVLFEDVYELCEVIGKGAFSVVRRCINRETGQQFAVKIVDVAKFTSSPGLSTEDLKREASICHMLKHPHIVELLETYSSDGMLYMVFEFMDGADLCFEIVKRADAGFVYSEAVASHYMRQILEALRYCHDNNIIHRDVKPENVLLASKENSAPVKLGDFGVAIQLGESGLVAGGRVGTPHFMAPEVVKREPYGKPVDVWGCGVILFILLSGCLPFYGTKERLFEGIIKGKYKMNPRQWSHISESAKDLVRRMLMLDPAERITVYEALNHPWLKERDRYAYKIHLPETVEQLRKFNARRKLKGAVLAAVSSHKFNSFYGDPPEELPDFSEDPTS	soluble
MGSDKIHHHHHHMPPRPFDEMTNPDGGIRSPYGLYSDWVNQTPLDVLRQKHAQADVLFRRIGITFAVYGDNQGGERLIPFDVVPRIISKKEWDILSRGVCQRVDALNRFIYDVYHDQEILKAGKVPKGLVRNNGQFRKEMVGFTPPRNLYVQIAGIDIVRTAENEFHVLEDNLRTPSGVSYMLENRDVMTRLFPELFNRHPVAPVNHYAQELLKTLQYSAPDHADNPTVVVLTPGQYNSAYFEHAFLADEMGIELVQGQDLFVEGGHVYMRTIAGPQRVDVIYRRIDDDFLDPLAFRKDSMLGVPGLFEAYRSGAVTLANAIGTGIADDKAIYDFVPGMIEFYLGEKPILRNVPTYHLDDDDDRAYVLEHLAELVVKEVHGSGGYGMLVGPRASRQQISDYRDRILADPANFIAQPTLALSTCPTFVDQGLAPRHVDLRPFVLAGKTTQVVPGGLTRVALEKDSLVVNSSQGGGTKDTWVLER	not soluble
MSKAKIGIVTVSDRASAGIYEDISGKAIIDTLNDYLTSEWEPIYQVIPDEQDVIETTLIKMADEQDCCLIVTTGGTGPAKRDVTPEATEAVCDRMMPGFGELMRAESLKFVPTAILSRQTAGLRGDSLIVNLPGKPKSIRECLDAVFPAIPYCIDLMEGPYLECNEAVIKPFRPKAK	soluble
GMKVLPVKQYLIMENYNPDTIFNGIVKINSNEKTFDDEILAQIGGALHDIDESWELLLSFANTIRSNWEIKTPAYDIVRLIVKKLPYSSDIKDYIEEGLGNKNITLTMLTVRILVNCFNNENWGVKLLESNQVYKSIFETIDTEFSQASAKQSQNLAIAVSTLIFNYSALVTKGNSDLELLPIVADAINTKYGPLEEYQECEEAAYRLTVAYGNLATVEPTLRQFANSVTWLANIKRSYGNVPRFKDIFDDLS	soluble
WGYEAVGRFTSWEQIATYPIDNDRKGNKTVVPGDIMYKDVNGDGVINYMDERPIGYRSDSTPTLNFGINLSASWKGFDLAMDWTGSGMTSWQQQYETARPFQNDGNSPEEVFKDAWHLADIWDADSQLIPGKYPLIRLNNEETSAYDKSTFWLHNVKYIKLRNLEFGYTLPKRIVAKAGISNLRLYVSGTNLFSISNIPFMDPECIDSNGLDYPTMRVVNLGINLKF	not soluble
MPEGFDAYCICTGTPTARDLSIPGRELKGIHFALEMLAQQNRILEGQTFPKDKLVNAKGKKVLVIGGGDTGSDCIGTSVRQGATSVTQIEIMPKPPVGHNPSTPWPQWPVVFKTTSSHEEGCTRRWCLTSNQFLGKNGKVTGVEVEEVEWTPATDGGRPTMNLTGKKEVIEADMVLLAMGFLKPEQPKFAENVFLAGDAATGASLVVRAMAGGRKAAADIDHYLEHHHHHH	not soluble
LMVGGLLLAAASNNVQAEALQPDPAWQQGKLDNGFSWQLLATPQRPSDRIELRLIVNTGSLSENTQEVGFAHLLPRLALMSSASFTPAQLQSLWQQGIDNERPLPPAITSYDFTLYSLSLPNNRPDLLKDALAWLSDTAGNLAVSEQTVNAALNTATDPIATFPQNIQEPWWRYRLKGSSLIGHDPGQPVTQPVDVEKLKQFYQQWYTPDAMTLYVVGNVDSRSIAAQISKAFSELKGKRTAPAAVATLAPLPPEPVSLMNEQAAQDTLSLMWDTPWHPIQDSMALSRYWRSDLAREALFWHIKQVLEKNNQKNLKLGFDCRVQYQRAQCAIHLNTPVENLTANMTFVARELAALRANGLSQAEFDALMTQKNDQLSKLFATYARTDTDILMSQRLRSQQSGVVDIAPEQYQKLRQAFLSGLTLAELNRELKQQLSQDTTLVLMQPKGEPEVNVKALQEIYNGIMAPQTVAEEEVAPAEAVETAPVMPTTAQ	soluble
